Laboratory results: publication PMC8257933

B1: NTCP wild type, NTCP-FLAG and NTCP-V5-His expressed in HEK293 cells [human] / NTCP wild type, NTCP-FLAG and NTCP-V5-His expressed in HEK293 cells [human] (parent)
chain 1: MEAHNASAPFNFTLPPNFGKRPTDLALSVILVFMLFFIMLSLGCTMEFSKIKAHLWKPKGLAIALVAQYGIMPLTAFVLGKVFRLKNIEALAILVCGCSPGGNLSNVFSLAMKGDMNLSIVMTTCSTFCALGMMPLLLYIYSRGIYDGDLKDKVPYKGIVISLVLVLIPCTIGIVLKSKRPQYMRYVIKGGMIIILLCSVAVTVLSAINVGKSIMFAMTPLLIATSSLMPFIGFLLGYVLSALFCLNGRCRRTVSMETGCQNVQLCSTILNVAFPPEVIGPLFFFPLLYMIFQLGEGLLLIAIFWCYEKFKTPKDKTKMIYTAATTEETIPGALGNGTYKGEDCSPCTA
chain 2: B1 chain 1

Variants of: B1
Assay: co-IP (IP anti-FLAG agarose, western blot anti-V5, ImageJ band quantification)
Conditions: with NTCP wild type, HEK293 cells co-transfected with NTCP-FLAG and NTCP-V5-His, n = 3 independent experiments, parent: 100, read off a plot

First: chain 1 MEAHNASAPFNFTLPPNFGKRPTDLALSVILVFMLFFIMLSLGCTMEFSKIKAHLWKPKGLAIALVAQYGIMPLTAFVLGKVFRLKNIEALAILVCGCSPGGNLSNVFSLAMKGDMNLSIVMTTCSTFCALGMMPLLLYIYSRGIYDGDLKDKVPYKGIVISLVLVLIPCTIGIVLKSKRPQYMRYVIKGGMIIILLCSVAVTVLSAINVGKSIMFAMTPLLIATSSLMPFILFLLLYVLSALFCLNGRCRRTVSMETGCQNVQLCSTILNVAFPPEVIGPLFFFPLLYMIFQLGEGLLLIAIFWCYEKFKTPKDKTKMIYTAATTEETIPGALGNGTYKGEDCSPCTA [chain 1 G233L G237L]
Second: chain 1 MEAHNASAPFNFTLPPNFGKRPTDLALSVILVFMLFFIMLSLGCTMEFSKIKAHLWKPKLLAILLVAQYGIMPLTAFVLGKVFRLKNIEALAILVCGCSPGGNLSNVFSLAMKGDMNLSIVMTTCSTFCALGMMPLLLYIYSRGIYDGDLKDKVPYKGIVISLVLVLIPCTIGIVLKSKRPQYMRYVIKGGMIIILLCSVAVTVLSAINVGKSIMFAMTPLLIATSSLMPFILFLLLYVLSALFCLNGRCRRTVSMETGCQNVQLCSTILNVAFPPEVIGPLFFFPLLYMIFQLGEGLLLIAIFWCYEKFKTPKDKTKMIYTAATTEETIPGALGNGTYKGEDCSPCTA [chain 1 G60L A64L G233L G237L]
The percent of parent of the first is lower: 130 % of control for the first, 160 % of control for the second.

chain 1 MEAHNASAPFNFTLPPNFGKRPTDLALSVILVFMLFFIMLSLGCTMEFSKIKAHLWKPKLLAILLVAQYGIMPLTAFVLGKVFRLKNIEALAILVCGCSPGGNLSNVFSLAMKGDMNLSIVMTTCSTFCALGMMPLLLYIYSRGIYDGDLKDKVPYKGIVISLVLVLIPCTIGIVLKSKRPQYMRYVIKGGMIIILLCSVAVTVLSAINVGKSIMFAMTPLLIATSSLMPFIGFLLGYVLSALFCLNGRCRRTVSMETGCQNVQLCSTILNVAFPPEVIGPLFFFPLLYMIFQLGEGLLLIAIFWCYEKFKTPKDKTKMIYTAATTEETIPGALGNGTYKGEDCSPCTA [chain 1 G60L A64L] was tested, and the percent of parent was 110 % of control.
